Data: article PMC12344693, “Human Milk Oligosaccharides Multivalently Presented on Defined Synthetic Neo-Glycoproteins Are Nanomolar Ligands of Tandem-Repeat Galectins” (Biomacromolecules, 2025)

Experiments:
Asialofetuin = Asialofetuin (UniProt P12763); test: ELISA; direct ELISA: ASF immobilised on microtiter plates, serial dilution of the galectin in EPBS (PBS with 2 mM EDTA, 50 µL/well); otherwise as the competitive ELISA (anti-His-tag-HRP detection)
[1] = molecular target: His-tagged galectin-1 (C2S) (human); test: ELISA; competitive ELISA: ASF (0.1 µM in PBS) immobilised, serial dilutions of the neo-glycoprotein in EPBS incubated with […] Gal-1 or Gal-3 for 2 h; galectin left on ASF detected with anti-His-tag-HRP
His-tagged galectin-1 (C2S) (human), sequence (P09382 other isoform, or with tags, fused parts or gaps): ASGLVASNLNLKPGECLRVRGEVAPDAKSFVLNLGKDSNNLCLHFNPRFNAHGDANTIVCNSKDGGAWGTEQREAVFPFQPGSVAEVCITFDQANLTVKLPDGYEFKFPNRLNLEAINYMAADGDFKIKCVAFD

[2] = molecular target: full-length recombinant human galectin-8, N-terminal His-tagged (human) (UniProt O00214); test: ELISA; competitive: ASF (0.1 μM in PBS) immobilised on microtiter plates; serial dilutions of inhibitor in EPBS (PBS with 2 mM EDTA) incubated 2 h with a constant galectin concentration ([…] Gal-1, Gal-3, Gal-4; 0.5 μM Gal-8, Gal-9); residual galectin on ASF detected with anti-His-tag-HRP
full-length recombinant human galectin-8, N-terminal His-tagged (human), sequence (O00214 whole entry): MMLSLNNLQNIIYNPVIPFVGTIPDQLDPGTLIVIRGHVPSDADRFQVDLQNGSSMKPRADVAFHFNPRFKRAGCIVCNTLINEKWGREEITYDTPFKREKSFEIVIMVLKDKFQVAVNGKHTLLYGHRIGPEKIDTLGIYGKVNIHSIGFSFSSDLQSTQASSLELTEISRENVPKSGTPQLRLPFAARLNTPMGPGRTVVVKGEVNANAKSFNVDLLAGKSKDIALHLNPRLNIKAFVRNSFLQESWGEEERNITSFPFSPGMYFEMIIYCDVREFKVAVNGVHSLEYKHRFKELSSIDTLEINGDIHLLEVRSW

Asialofetuin, sequence (P12763 19-359): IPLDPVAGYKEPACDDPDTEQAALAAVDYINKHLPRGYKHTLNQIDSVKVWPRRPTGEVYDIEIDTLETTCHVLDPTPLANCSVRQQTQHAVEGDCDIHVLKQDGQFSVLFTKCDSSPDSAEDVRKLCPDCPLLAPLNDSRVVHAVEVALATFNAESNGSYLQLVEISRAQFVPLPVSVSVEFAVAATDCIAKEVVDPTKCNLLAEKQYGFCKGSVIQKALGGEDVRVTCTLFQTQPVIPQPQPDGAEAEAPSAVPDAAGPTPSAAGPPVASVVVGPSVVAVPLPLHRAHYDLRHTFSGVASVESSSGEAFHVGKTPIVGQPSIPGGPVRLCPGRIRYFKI

Substance	IC50 [1] [nM]	IC50 [2] [nM]	further results
Gal-8-AVI-link (natural protein)	–	–	Kd (Asialofetuin): 320 nM
Gal-9-AVI-link (natural protein)	–	–	Kd (Asialofetuin): 180 nM
Neo-glycoprotein NGP1 (Lac-HSA) (from UniProt P02768 25-609)	> 20000	–	–
Neo-glycoprotein NGP4 (LN1-LN2-HSA) (from UniProt P02768 25-609)	> 20000	–	–
Neo-glycoprotein NGP8 (LDN-LN2-HSA) (from UniProt P02768 25-609)	> 20000	–	–
neo-glycoprotein NGP1 (Lac-HSA) (from UniProt P02768 25-609)	–	> 20000	–
neo-glycoprotein NGP2 (LN2-HSA) (from UniProt P02768 25-609)	–	> 20000	–
neo-glycoprotein NGP4 (LN1-LN2-HSA) (from UniProt P02768 25-609)	–	600	–
neo-glycoprotein NGP5 (LN2-Lac-HSA) (from UniProt P02768 25-609)	–	200	–
neo-glycoprotein NGP7 (LDN-Lac-HSA) (from UniProt P02768 25-609)	–	400	–
